This note sets out measurements from patent US6525022B1, “Receptor specific atrial natriuretic peptides” (Genentech, Inc., priority 1993, dated 2003).

Bridges are numbered along the chain shown (N, C = ends). Where no end group is shown, it is not given here.

In data set [1] the target is human NEP (hNEP), endopeptidase 24.11 (Homo sapiens, UniProt P08473). Nature of the data set: in vitro. The note with it: Half-Life (min.).
For data set [2], the target named is human neutral endopeptidase 24.11 (human) (UniProt P08473). The data set can be described thus: cell-based or functional assay.
Sequence of human neutral endopeptidase 24.11 (human) (P08473 2-750 limits assumed): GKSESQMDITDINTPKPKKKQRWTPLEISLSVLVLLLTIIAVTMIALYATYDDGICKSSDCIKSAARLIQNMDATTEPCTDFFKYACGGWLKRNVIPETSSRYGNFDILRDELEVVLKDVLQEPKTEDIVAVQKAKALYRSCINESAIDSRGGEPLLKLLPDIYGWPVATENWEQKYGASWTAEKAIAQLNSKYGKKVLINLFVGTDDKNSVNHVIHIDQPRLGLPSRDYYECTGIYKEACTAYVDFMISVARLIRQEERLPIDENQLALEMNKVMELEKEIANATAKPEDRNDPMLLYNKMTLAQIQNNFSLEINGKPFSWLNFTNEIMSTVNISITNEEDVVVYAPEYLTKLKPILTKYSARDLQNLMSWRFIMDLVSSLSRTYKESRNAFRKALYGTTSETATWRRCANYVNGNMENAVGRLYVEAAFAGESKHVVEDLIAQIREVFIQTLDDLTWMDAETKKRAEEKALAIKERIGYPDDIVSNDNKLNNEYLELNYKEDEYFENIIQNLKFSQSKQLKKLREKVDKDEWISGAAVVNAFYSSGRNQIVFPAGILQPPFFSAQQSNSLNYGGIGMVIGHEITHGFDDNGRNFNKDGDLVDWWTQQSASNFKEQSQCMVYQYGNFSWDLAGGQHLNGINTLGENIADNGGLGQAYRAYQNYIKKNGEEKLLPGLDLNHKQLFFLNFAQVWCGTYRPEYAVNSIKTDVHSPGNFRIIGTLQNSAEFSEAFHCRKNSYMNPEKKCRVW
Data set [3] has as its target T1, human natriuretic peptide clearance receptor-C (human) (UniProt P17342).
T1 sequence (looked up): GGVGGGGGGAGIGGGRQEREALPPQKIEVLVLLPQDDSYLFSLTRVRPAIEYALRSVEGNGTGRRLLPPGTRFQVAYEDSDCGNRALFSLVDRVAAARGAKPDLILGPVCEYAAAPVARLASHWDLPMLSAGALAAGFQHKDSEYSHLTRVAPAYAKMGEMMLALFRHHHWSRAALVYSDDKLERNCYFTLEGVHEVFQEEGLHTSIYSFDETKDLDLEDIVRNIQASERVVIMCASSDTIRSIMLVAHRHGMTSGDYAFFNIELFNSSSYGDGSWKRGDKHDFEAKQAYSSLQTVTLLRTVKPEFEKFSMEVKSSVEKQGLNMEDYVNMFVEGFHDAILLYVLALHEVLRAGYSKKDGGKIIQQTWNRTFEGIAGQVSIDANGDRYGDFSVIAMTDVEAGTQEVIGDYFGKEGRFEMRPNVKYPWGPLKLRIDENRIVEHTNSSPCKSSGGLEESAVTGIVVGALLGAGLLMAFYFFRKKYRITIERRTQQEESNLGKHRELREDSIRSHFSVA
Nature of the data set: competition binding, Table I; tracer and receptor format not given.

Data set [4] concerns the target human natriuretic peptide receptor-A (human) (UniProt P16066). The description is as above.
For data set [5], the target named is T2, human natriuretic peptide clearance receptor-C (human, UniProt P17342 27-541).
T2 construct: whole, on cells; also called hNPR-C; human NPR-C
T2 sequence (looked up): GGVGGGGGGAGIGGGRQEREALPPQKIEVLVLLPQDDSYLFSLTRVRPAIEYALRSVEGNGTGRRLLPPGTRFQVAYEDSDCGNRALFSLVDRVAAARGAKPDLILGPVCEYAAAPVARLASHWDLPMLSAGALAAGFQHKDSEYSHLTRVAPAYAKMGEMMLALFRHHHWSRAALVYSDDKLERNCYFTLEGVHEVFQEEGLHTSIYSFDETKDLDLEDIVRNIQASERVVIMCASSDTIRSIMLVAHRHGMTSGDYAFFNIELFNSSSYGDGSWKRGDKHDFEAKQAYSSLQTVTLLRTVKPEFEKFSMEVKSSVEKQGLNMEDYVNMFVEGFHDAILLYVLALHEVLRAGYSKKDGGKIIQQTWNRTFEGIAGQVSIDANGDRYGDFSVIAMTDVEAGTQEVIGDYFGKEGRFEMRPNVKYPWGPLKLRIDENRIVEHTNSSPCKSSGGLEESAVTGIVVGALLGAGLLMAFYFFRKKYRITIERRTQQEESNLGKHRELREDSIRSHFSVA
The data set can be described thus: analysis of variants in receptor binding.

Sequence of human NEP (hNEP), endopeptidase 24.11 (P08473 whole entry): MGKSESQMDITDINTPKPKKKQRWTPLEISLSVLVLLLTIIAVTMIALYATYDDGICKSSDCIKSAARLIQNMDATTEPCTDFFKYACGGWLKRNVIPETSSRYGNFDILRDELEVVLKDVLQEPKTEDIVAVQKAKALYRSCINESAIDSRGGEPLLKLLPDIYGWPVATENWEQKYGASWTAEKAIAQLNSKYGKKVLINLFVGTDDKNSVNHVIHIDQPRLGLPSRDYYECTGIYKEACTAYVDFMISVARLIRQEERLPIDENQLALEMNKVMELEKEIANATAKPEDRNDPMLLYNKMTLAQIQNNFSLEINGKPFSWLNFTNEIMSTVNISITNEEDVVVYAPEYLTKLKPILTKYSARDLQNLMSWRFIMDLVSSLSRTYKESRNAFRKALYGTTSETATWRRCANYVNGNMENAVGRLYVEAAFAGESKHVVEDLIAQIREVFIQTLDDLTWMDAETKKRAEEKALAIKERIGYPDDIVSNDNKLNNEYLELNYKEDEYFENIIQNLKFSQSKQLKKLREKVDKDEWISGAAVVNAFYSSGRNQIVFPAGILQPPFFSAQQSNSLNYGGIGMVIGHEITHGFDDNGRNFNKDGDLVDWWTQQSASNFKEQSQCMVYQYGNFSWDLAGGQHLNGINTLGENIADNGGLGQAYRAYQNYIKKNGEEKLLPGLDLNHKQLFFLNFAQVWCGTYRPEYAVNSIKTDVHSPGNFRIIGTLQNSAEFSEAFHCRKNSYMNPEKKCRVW

One may read the half-life as how long it takes for the measured level to halve. A lower half-life goes with fast loss. The molecule `CC[C@H](C)[C@@H]1NC(=O)[C@H](CCCNC(=N)N)NC(=O)[C@H](CC(=O)O)NC(=O)[C@H]([C@@H](C)CC)NC(=O)[C@H](CO)NC(=O)CNC(=O)[C@H]([C@@H](C)O)NC(=O)[C@H](Cc2ccccc2)N(C)C(=O)[C@@H](NC(=O)[C@H](CO)NC(=O)[C@H](CO)NC(=O)[C@H](CCCNC(=N)N)NC(=O)[C@H](CCCNC(=N)N)NC(=O)[C@H](CC(C)C)NC(=O)[C@@H](N)CO)CSSC[C@@H](C(=O)N[C@@H](CC(N)=O)C(=O)N[C@@H](CO)C(=O)N[C@@H](Cc2ccccc2)C(=O)N[C@@H](CCCNC(=N)N)C(=O)N[C@@H](Cc2ccc(O)cc2)C(=O)O)NC(=O)CNC(=O)[C@H](CC(C)C)NC(=O)CNC(=O)[C@H](CO)NC(=O)[C@H](CCC(N)=O)NC(=O)[C@H](C)NC(=O)[C@H](CCCNC(=N)N)NC1=O` [ANF 83] returned a half-life at 32 nM/ml in data set [1] of 15.5 h.

Broadly, the IC50 is the point on the concentration scale where inhibition reaches its midpoint. Higher therefore signals weaker potency. As to ANF 31 (peptide), in data set [2], the Half-Life came to 2.97 h. The IC50 in data set [3] is 3210 nM; in data set [4], 0.052 nM.

Regarding SLRRSSCFGGRMDRIRAQSGLGCNSFRY (disulfide 7-23 (inferred), also called hANF G16R) [hANF(1-28) G16R], in data set [5], the “fold reduction of affinity against wild type” value was about 150 fold.
